# Results reported in the nanobody polyreactivity screen of Harvey et al. (2022).
# Assay: yeast display, Sf9 membrane polyspecificity reagent, FACS + sequencing; frameworks hold sequencing errors
# Summary of the method: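 Using colony PCR, genes from sorted yeast display clones were amplified, then sequenced on MiSeq at 2 × 250 and filtered by CDR length. The clones had been stained with 10% biotinylated, detergent-solubilized Sf9 membrane reagent for 1 hour at 4 °C and sorted by FACS into low and high (top ~1%) gates on anti-HA and streptavidin fluorescence. Polyreactivity labels come from the gate of origin.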
row,Sequence,polyreactivity (PSR sort gate)
1,QVQLVESGGGLVQAGGSLRISCAASGFIFGGYAMGWYRQAPGKERELVAAISYSGGSTYYADSVKGRFTISRDNAKNTVYLQMNSLKPEDTAVYYCAVGYPYRYDYWGQGTQVTVSS,high polyreactivity
2,QVQLVESGGGLVQAGVSLRLSCAASGRIFPYNAMGWDRQAPGKERELVAAIDWSGGRTYYADSVKGRFTISRDNAKNTDYLQMNSLKPEDTALYYCAAAYGGRLRYTAGYYWGQGTQVTVSS,high polyreactivity
3,QVQLVESGGGLDQAGGSLRLSCAASGIIFVENAMGWYRQAPGKERELVASGDSTYADSVKGRFTISRDNAKNTVYLKMNSRKPEDTAVYYCAAEVYVYHPFVHYDYWGQGTQVTVSS,low polyreactivity
4,QVQLVESGGGLVQAGGSLRLSCAASGTFYPNAMGWYRQAPGKERELVAAISEDGGGTYYADSVKGRFTISRDNAKNTVYLQMNSLKPEDTAVYYCAAEYYDYWYTYDYWGQGTQVTVSS,high polyreactivity
5,QVQLVESGGGLVQAGGSLRLSCAASGSIFVGNAMGWYRQAPGKEWELVAAISAGGSTYYADSVKGRFTISRDNAKNTVYLKLNSLKTEDTAVYYCAAYYVRRYSSRPKDDYWGQGTQVTVSS,low polyreactivity
6,QVQLVESGGGLVQAGGSLSLTCAASGRILYRYAMGWYRPAPGKERDLVAAISWSGGSTYYADSVKGRFTISRDNAKNTVYLQLYSLKPEDTAVYYCNAVRASRSGGFDYWGQGTQVTVSS,high polyreactivity
7,QVQLVESGGGLVQAGGSLRLSCAASGSTFGYYAMGWYRQAPGKERELVAAISRGDSTNYADSVKGRFTISRDNAKNTVYLQMNSLKPEDTAVYYCAADQLNVCREYVEYDYWGQGTQVTVAS,low polyreactivity
8,QVQLVESGGGLVQAGGSLRLSCAASGRIFYINAMGWYRQAPGKERELVAAITEGGVSTYYADSVKGRFTISRDNAKNTVYLQMNSLKPEDTAVYYCNTTGGPDGIVIYEYWGQGTQVTVSS,low polyreactivity
9,QVQLVESGGGLVQAGGSLRLSCAASGRIFARYAMGWYRQAPGKERELVAAISFRGGSTYYADSVKGRFTISRDNAKNTVYLQMNSLKPEDTAVYYCAARFGGWDRGLDYWGQGTQVTVSS,high polyreactivity
10,QVQLVESGGGLVQAGGSLRLSCAASGRIFFDYAMGWYRQAPGKERELVADISYNGGSTNYADSVKGRFTISRDNAKNTVYLQMNSLKPEDTAVYYCNRAFVPVYDLDYYWGQGTQVTVSS,low polyreactivity
11,QVQLVESGGGLVQAGGSLRLSCAASGSTFKRNAMGWYRQAPGKERELVAAISFRGGSTYYADSVKGRFTISRDNAKNTVYLQMNSLKPEDTAVYYCAAGIYRIRGGGISFDYWGQGTQVTVSS,high polyreactivity
12,QVPLVESGGGLVQAGGILRLSSAASGFIFTYYAMGWYRQAPGKERELVAAISASGGSTYYADSVKGRFTISRDYAKNTVYIQLYSLEPEDSSVYYCNKLYQQRAWETFSWGGYWGQGTQVTVSS,high polyreactivity
13,QVQLVESGGGLVQAGGSLRLSCAASRSIFTWYAMGWYIQEPGKERELVAAITRGGSTYADSVKWRFTISRDNAKYTVYLLMNSLKPEDTAVYDCNAFYGVYDFNYWGQGTHVTVSS,low polyreactivity
14,QVQLVESGGGLVQAGGSLRLSCAASGYTFLPYAMGLYRQAPGKERELVADISSGGTTYYADSVKGRFTISRDNAKNTVYLQMNSLKPEDTAVYYCARASLPTYDWGQGTQVTVSS,low polyreactivity
15,QVQLVESGGGLGQAGGSLRLSCAASGSIFYSYAMGSYRQATGKERELVAAINWSGGSTYYADSVKGRFTISRDNAKNTVSLLMNSLKPEDTAVYYCAAGPGDSGDDYWGQCTQVTVSS,low polyreactivity
16,QVQLVESGGGLVQAGCSLRLSCAASGRTFYHYGMGWYRQAPGKERELVAAINFSGGSTNYADSVKGRFTISRDNAKNTVYLQMNSLKTEDTAVYNCNKEGRPDRDYWGQGTQVTVSS,low polyreactivity

row,Sequence,polyreactivity (PSR sort gate)
1,QVQLVESGGGLVQAGGSLRLSCAASGSNFGSNAMGWYRQAPGKERELVATISGRGGSTYYADSVKGRFTISRDNAKNTVYLQMNSLKPEDTAVYYCAKDRRTWRYGQVFSPYYYWGQGTQVTVSS,low polyreactivity
2,QVQLVESGGGLVQAGGSLRLSCAASGFYAMGWYIQAPGKERELVAAIRYRGGSTYYADSVKGRFTFSRDNAKNTVDLQMNSLKPEDTAVYYCAASTGPDRQFDSWGQGTQVTVSS,low polyreactivity
3,QVQLVESGGGLVQAGGSLRLSCAASGFIFHRYAMGWYRQAPGKERELVAAISSSGGSTYYADSVKGRFTISRDNAKNTVYLQMNSLKPEDTAVYYCAAEEEEFIYDYWGQGTQVTVSS,high polyreactivity
4,QVQLVESGGGLVQAGGSLRLSCAASGSIFVYNAMGWYRQAPGKERELVAAIDTVGSTNYADSVKGRFTISRDNAKNTVYLQMNSVKPVDPAVYYCAVVTPYWSFYEQVIPSNYWGQGTQVTVSS,low polyreactivity
5,QVQLVESGGGLVQAGGSLRLSCAASGRIFTHNAMGWYRQAPGKERELVAAITWTGGSTYADSVKGRFTISRDNAKKTVYLQMNSLKPEDTAVYYCNARAHRYYLYDVQFGRGHSGGYWGQGTQVTVSS,low polyreactivity
6,QVQLVESGGGLVQAGGSLRLSCAASGRTFVSYVMGWYRQAPGKERELVAAIDQSGDRTYYPDSVKGRFTISRDNAKNTVYLQMNSLKPEDTAVYYCASRWGYSSRPYYYWGQGTQVTVSS,high polyreactivity
7,QVQLVESGGGLDQAGGSLRLSCAASGSIFPDYAMGWYIPAPGKERELVAAITWSGGNTYYADSVKGRFTISRDNAKNTVYLQMNSLKPEDTAVYYCAADISLHWYYYRRYNYWGQGTQVTVSS,low polyreactivity
8,QVQLVESGGGLVQAGGSLRLSCAASGRIFTPYAMGWYRQAPGKERELVAVIRDGSTYYADSVKGRFTISRDNAKNTVYIQMNSLKPEDTAVYYCRYDIWVWWSGAYDYWGQGTQVTVSS,low polyreactivity
9,QVQLVESGGGLVQEGGSLLISCAASGSIVESYAMGWYRQAPGKEREWVAAITIRGASPYYADSVKGRFTISRDNAKNTVYLQMNSLKPEDTAVYYCNARWPGIGPIYDYWGQGTQVTVSS,low polyreactivity
10,QVQLVESGGGLVQAGGSLRLSCAASGSIYVLYAMGWYRQAPGKERELVAAISRGVGGKNYADSVKGRFTISRDNAKNTVYLQMNSLIPEDTAVYYCAAQTLRWSHYYYWGQGTQVTVSS,high polyreactivity
11,QVQLVESGGGLVQAGGSLRLSCAASGIFGYNARGWYRQAPGKERELVAAITSSGTSTYYADSVKGRFTISRDNAKNTVYLQMNSLKPEDTAVYYCAALHSGTWTGYGYWGQGTQVTVSS,low polyreactivity
12,QVQLVESGGGLVQAGGSLRLSCAASGSTFYYNTMGWYRQAPGKERELVAAISRSGGSTYYADSVKGRFTISRDNAKNTVYLQMNSLKPEDTAVYYCAARIIGARNLYGYWGQGTQVTVSS,high polyreactivity
13,QVHLVESGGGLVQAGGSLRLSCAASGSTFYNNAMGWYRQAPGKERELVAAINYSGGSTNYADSVKGRFTISRDNAKNTVYLQMNILKPEDTAVYYCATDLHWLVTKYGYWGQGTQVTVSS,low polyreactivity
14,QGQLVQSGVGLVQAGGILRLSCASSGITFASYAMGWYRPAPGKEMELVATITTGGTNTYYADSVKARFTISRDNAKNTVYLQMNSLKPEDTAVYSSAADSTQYVLSGNYDYWGQGTQVTVSS,low polyreactivity
15,QVQLVESGGGLVQAGGSLRLSCAASGRIFRAYAMGWYRQAPGKERELVASITGSGGSTYYADSVKGRFTISRDNAKNTVYFQMNILKPEDTAVYYCAVASYRVWGVGTRYYYWGQGTHVTVSS,high polyreactivity
16,QVQLVDSGGGLVQAGGSLRLSCAASGSIYNIYAMGWYRQAPGKERELVATITGIADSTYYADSVKGRFTISRDNAKNTVYLQMNSLKPEDTAVYYCAADKYVAEYDYWGQGTQVTVSS,low polyreactivity
